Data published in article PMC10681800, “Structural and functional investigation of GajB protein in Gabija anti-phage defense” (Nucleic Acids Research, 2023).
Values joined by “and” are separate entries in the source; they are usually repeats but may differ in a detail not shown here. Identical values can stand only once.

B1: GajA of the Gabija anti-phage defense system of Bacillus cereus VD045, with a C-terminal (His)6 tag, purified on its own (enzyme, UniProt J8H9C1 1-578, looked up)
chain: MKFSNITIKNFRNFEKVNINLDNKNVIFGMNDIGKTNFLYALRFLLDKEIRKFGFNKSDYHKHDTSKKIEIILTLDLSNYEKDEDTKKLISVVKGARTSANADVFYIALESKYDDKELYGNIILKWGSELDNLIDIPGRGNINALDNVFKVIYINPLVDLDKLFAQNKKYIFEESQGNESDEGILNNIKSLTDQVNQQIGEMTIIKGFQQEITSEYRSLKKEEVSIELKSEMAIKGFFSDIIPYIKKDGDSNYYPTSGDGRRKMLSYSIYNYLAKKKYEDKIVIYLIEEPEISLHRSMQIALSKQLFEQSTYKYFFLSTHSPELLYEMDNTRLIRVHSTEKVVCSSHMYNVEEAYGSVKKKLNKALSSALFAERVLLIEGPSEKILFEKVLDEVEPEYELNGGFLLEVGGTYFNHYVCTLNDLGITHIIKTDNDLKSKKGKKGVYELLGLNRCLNLLGRENLDEITIDIPEDIKGKKKKERLNERKKEIFKQYKNEVGEFLGERIYLSEIDLENDLYSAIGESMKRIFENEDPVHYLQKSKLFNMVELVNNLSTKDCFDVFEHEKFACLKELVGSDRG
notes: GajA, Bacillus cereus VD045, synthetic gene in pET21a; 67.0 kDa as printed; Tetramer by SEC-MALS and analytical SEC; also called individually purified GajA; separately purified GajA; source: E. coli BL21(DE3), purified (HisTrap HP, SEC Superdex 200)
B2: GajB of the Gabija anti-phage defense system of Bacillus cereus VD045, purified on its own, (His)6-MBP tag cleaved by TEV protease (natural protein)
chain: MSREQIIKDGGNILVTAGAGSGKTTILVSKIEADLKENKTHYSIAAVTFTNKAAKEIEGRLGYSSRGNFIGTNDGFVESEIIRPFIKDAFGNDYPDNFTAEYFDNQFASYDKGLQVLKYQNILGTYSNPKKNFKFQLALDILKKSLVARQYIFSKYFKIFIDEYQDSDKDMHNLFMYLKDQLKIKLFIVGDPKQSIYIWRGAEPENFNGLIENSTDFNKYHLTSNFRCCQDIQNYSNLFNEETRSLIKEKNEVQNVISIADDMPISDILLKLTEEKQVLNIEAELVILVRRRNQAIEIMKELNEEGFNFIFIPQTPLDRATPNATLLKEVIKYVKNDRYSIYDLAAEIVGNLSSREIKEIQKIINELLVPNINQVLINQVLINLFAKLEITLDTREITAFTEVMMTNEFDIAFDTNEYLHKIFTVHSAKGLEFNQVIITASDYNVHYNRDTNEHYVATTRAKDKLIVIMDNKKYSDYIETLMKELKIKNIIKSI
notes: GajB, Bacillus cereus VD045, synthetic gene in pET28a with (His)6-MBP and a TEV site; 57.1 kDa as printed; the subdomains of the crystal structure span residues 1-494; the shorter of the two GajB forms that the discussion tells of (the long form has five more N-terminal residues); Monomer by SEC-MALS and analytical SEC; also called individually purified GajB; separately purified GajB; source: E. …

Assays:
[1] = biological target: B2; experiment: ITC; 4°C; 20 μM GajB in the cell titrated with 20 injections of 2 μl of 200 μM GajA; 300 mM NaCl, 1 mM TCEP, 10% glycerol, 20 mM HEPES pH 7.5; triplicate; conditions: both partners purified
[2] = biological target: the molecule itself; experiment: SEC-MALS + SEC; each protein alone; Superdex 200 Increase 10/300 GL with miniDAWN/Optilab, 300 mM NaCl, 2 mM DTT, 5% glycerol, 20 mM HEPES pH 7.5, 20 μM, 25 °C; analytical SEC in the same buffer
[3] = biological target: T1, GajB of the Gabija anti-phage defense system of Bacillus cereus VD045, purified on its own, (His)6-MBP tag … (Bacillus cereus VD045, UniProt J8HQ06 1-494); experiment: ITC
T1 chain: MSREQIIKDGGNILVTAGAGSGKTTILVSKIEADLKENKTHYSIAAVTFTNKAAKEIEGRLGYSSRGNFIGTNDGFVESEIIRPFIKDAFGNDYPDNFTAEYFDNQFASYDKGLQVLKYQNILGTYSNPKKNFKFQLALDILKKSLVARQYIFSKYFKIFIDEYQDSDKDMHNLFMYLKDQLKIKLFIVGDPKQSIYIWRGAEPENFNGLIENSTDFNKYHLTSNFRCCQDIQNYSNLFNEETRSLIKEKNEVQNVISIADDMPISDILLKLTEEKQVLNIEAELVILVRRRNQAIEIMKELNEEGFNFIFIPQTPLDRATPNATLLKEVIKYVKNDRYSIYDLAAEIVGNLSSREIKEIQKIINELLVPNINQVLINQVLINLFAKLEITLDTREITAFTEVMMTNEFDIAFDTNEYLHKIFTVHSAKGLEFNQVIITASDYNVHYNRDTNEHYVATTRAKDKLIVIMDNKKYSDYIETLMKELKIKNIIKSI

[4] = biological target: B1; experiment: SEC; analytical SEC, Superdex 200 10/300 GL; 300 mM NaCl, 2 mM DTT, 5% glycerol, 20 mM HEPES pH 7.5; samples 20 μM each, incubated at 4°C for 1 h before loading; also GajA pre-incubated with increasing amounts of GajB; conditions: both partners purified
[5] = biological target: B1; experiment: ITC; 4°C; 20 μM GajB in the cell titrated with 20 injections of 2 μl of 200 μM GajA; 300 mM NaCl, 1 mM TCEP, 10% glycerol, 20 mM HEPES pH 7.5; triplicate; conditions: both partners purified
[6] = biological target: B1; experiment: SEC-MALS; GajA pre-incubated with an excess of GajB (molar ratio 4:8); Superdex 200 Increase 10/300 GL, 300 mM NaCl, 2 mM DTT, 5% glycerol, 20 mM HEPES pH 7.5, 25 °C; conditions: both partners purified
UvrD = biological target: T2, UvrD (Escherichia coli DH5alpha, UniProt P03018 1-720); experiment: EMSA; 10 uM protein, 5 uM DNA, 5 mM Mg2+, no ATP; EMSA: 5 mM MgCl2, 1 mM DTT, 0.75 uM BSA, 20 mM Tris-HCl pH 7.5, 25 C, 90 min; 2% agarose gel, ethidium bromide; conditions: protein: recombinant; tags: N-terminal His6-MBP removed with TEV protease (as for GajB); label: fluorescein on the 25-mer in helicase assay; 25 bp duplex, 3' overhang 15 nt (T15) on strand 2
T2 sequence: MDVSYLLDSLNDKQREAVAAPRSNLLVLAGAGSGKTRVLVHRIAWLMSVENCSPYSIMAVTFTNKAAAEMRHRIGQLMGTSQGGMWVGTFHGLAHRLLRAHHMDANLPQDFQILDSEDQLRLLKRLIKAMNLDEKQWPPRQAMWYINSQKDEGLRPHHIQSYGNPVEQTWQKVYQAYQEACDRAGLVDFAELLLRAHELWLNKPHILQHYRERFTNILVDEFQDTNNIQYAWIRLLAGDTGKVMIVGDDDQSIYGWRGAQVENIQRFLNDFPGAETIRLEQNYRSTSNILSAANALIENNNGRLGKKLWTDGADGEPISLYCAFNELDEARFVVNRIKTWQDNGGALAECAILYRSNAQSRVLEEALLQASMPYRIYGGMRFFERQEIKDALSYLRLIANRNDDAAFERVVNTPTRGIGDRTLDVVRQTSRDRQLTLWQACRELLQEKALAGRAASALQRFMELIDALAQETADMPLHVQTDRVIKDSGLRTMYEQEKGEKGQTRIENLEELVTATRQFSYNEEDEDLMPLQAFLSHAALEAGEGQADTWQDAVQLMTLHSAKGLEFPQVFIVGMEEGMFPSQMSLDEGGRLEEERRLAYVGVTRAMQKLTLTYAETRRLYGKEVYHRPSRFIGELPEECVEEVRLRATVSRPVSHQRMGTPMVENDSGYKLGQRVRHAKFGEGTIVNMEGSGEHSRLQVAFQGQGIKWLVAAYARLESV

GajB = biological target: T3, GajB (Bacillus cereus VD045, UniProt J8HQ06 1-494); experiment: as above; conditions: protein: recombinant; tags: N-terminal His6-MBP removed with TEV protease; label: fluorescein on the 25-mer in helicase assay; 25 bp duplex, 3' overhang 15 nt (T15) on strand 2
T3 sequence: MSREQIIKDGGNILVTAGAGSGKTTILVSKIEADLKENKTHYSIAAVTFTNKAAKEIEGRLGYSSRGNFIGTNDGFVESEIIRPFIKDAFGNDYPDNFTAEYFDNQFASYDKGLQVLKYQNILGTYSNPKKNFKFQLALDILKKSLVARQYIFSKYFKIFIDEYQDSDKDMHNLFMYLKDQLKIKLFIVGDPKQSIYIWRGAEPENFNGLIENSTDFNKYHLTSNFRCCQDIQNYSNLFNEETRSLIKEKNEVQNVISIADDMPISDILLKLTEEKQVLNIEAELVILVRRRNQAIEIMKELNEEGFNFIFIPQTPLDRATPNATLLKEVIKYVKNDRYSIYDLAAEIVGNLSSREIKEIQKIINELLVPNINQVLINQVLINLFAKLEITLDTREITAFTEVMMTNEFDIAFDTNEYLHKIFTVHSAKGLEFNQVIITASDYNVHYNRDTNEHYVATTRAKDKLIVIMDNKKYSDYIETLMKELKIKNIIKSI

GajA;GajB = biological target: T4, GajA;GajB (Bacillus cereus VD045;Bacillus cereus …, UniProt J8H9C1;J8HQ06 1-578;1-494, |); experiment: as above; conditions: protein: recombinant;recombinant; chain copies: 4;4; label: fluorescein on the 25-mer in helicase assay; 25 bp duplex, 3' overhang 15 nt (T15) on strand 2
T4 sequence 1: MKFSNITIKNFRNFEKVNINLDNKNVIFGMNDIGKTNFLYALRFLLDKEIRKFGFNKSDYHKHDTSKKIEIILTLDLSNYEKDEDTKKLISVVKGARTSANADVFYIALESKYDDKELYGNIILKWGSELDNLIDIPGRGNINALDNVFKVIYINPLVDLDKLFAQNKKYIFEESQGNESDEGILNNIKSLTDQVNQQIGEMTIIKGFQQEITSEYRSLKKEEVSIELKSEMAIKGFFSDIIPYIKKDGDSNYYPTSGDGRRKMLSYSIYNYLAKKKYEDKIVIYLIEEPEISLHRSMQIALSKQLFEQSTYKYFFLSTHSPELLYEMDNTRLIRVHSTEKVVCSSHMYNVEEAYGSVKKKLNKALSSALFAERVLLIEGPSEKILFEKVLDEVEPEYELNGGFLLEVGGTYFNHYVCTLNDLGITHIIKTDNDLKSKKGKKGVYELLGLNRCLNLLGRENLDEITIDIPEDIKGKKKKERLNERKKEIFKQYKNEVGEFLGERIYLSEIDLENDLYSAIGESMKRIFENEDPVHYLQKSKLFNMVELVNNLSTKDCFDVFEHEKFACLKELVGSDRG
T4 sequence 2: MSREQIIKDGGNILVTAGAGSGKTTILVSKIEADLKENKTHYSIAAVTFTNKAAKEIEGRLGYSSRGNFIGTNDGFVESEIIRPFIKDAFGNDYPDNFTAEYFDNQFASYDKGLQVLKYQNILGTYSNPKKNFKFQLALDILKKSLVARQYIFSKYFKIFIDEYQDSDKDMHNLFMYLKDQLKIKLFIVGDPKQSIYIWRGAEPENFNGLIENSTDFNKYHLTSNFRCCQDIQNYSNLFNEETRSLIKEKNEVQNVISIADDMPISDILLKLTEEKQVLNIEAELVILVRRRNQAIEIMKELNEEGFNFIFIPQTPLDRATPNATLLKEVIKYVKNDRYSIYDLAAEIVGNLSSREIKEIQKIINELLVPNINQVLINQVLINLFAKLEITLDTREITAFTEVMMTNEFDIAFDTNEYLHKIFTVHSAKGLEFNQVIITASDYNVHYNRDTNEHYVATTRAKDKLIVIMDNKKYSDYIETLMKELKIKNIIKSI

Binder: B1
- stoichiometry N [1]: ~1
- stoichiometry N [2]: 4
- Kd [3]: 54.3 nM and 36.9 nM

Binder: B2
- stoichiometry N [4]: 4 GajB monomers per GajA tetramer
- Kd [5]: ~46.4 nM
- stoichiometry N [6]: 4 GajB monomers per GajA tetramer (4:4)

B3: 3'-tailed dsDNA (dsDNA)
DNA 1: TCGGTACGACCTGCGAGCACTGCTT
DNA 2: AAGCAGTGCTCGCAGGTCGTACCGATTTTTTTTTTTTTTT
- binding result (UvrD): binds
- binding result (GajB): no binding
- binding result (GajA;GajB): no binding
